These results are taken from publication PMC8639797 (Nature, 2021).

This experiment concerns the target T1, trx-ALKAL2-AD^RC (K94E/K96E/K99E/H100E) (human, UniProt Q6UX46 77-152, K94E | K96E | K99E | H100E).
T1 sequence (looked up): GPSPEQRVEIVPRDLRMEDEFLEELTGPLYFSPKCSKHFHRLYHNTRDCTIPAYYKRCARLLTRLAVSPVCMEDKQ
Description: BLI. For orientation: Biolayer interferometry detects binding as a change in optical thickness at a sensor tip.

B1: site-specifically biotinylated ALK-ECR^ABR (from Fc-ALKavi) (domain or fragment, human)
chain: QTPIFDPTVHWLFTTCGASGPHGPTQAQCNNAYQNSNLSVEVGSEGPLKGIQIWKVPATDTYSISGYGAAGGKGGKNTMMRSHGVSVLGIFNLEKDDMLYILVGQQGEDACPSTNQLIQKVCIGENNVIEEEIRVNRSVHEWAGGGGGGGGATYVFKMKDGVPVPLIIAAGGGGRAYGAKTDTFHPERLENNSSVLGLNGNSGAAGGGGGWNDNTSLLWAGKSLQEGATGGHSCPQAMKKWGWETRGGFGGGGGGCSSGGGGGGYIGGNAASNNDPEMDGEDGVSFISPLGILYTPALKVMEGHGEVNIKHYLNCSHCEVDECHMDPESHKVICFCDHGTVLAEDGVSCIVSP
modifications: biotin on the C-terminal biotin acceptor peptide (co-expressed BirA)
B1: the binding result was “binds”.
